The target in data set [1] is T1, bS21 (Halalkalibacterium halodurans C-125?) (UniProt Q9KD65).
T1 sequence: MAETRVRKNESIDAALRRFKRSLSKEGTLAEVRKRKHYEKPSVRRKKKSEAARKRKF
Put plainly: filter binding. The note with it: Filter binding: 20 mM Tris-HCl pH 7.5, 150 mM NaCl, 10 mM MgCl2, 1 mM TCEP, 5% glycerol, 0.001% SDS, ~2.5 nM RNA, 20°C, 15 min; in-line probing buffer not in ….

The target of data set [2] is T1, bS21 (Halalkalibacterium halodurans C-125?). The data set can be described thus: footprinting (in-line probing). The note with it: Filter binding: 20 mM Tris-HCl pH 7.5, 150 mM NaCl, 10 mM MgCl2, 1 mM TCEP, 5% glycerol, 0.001% SDS, ~2.5 nM RNA, 20°C, 15 min; in-line probing buffer not in ….

For “GGCAUUUAAAGAGGAUUACAGUGUGGACUAAGUGGUAAUCCAGUCUGGCGUUUGGUGACAGCGCCAAGUUCAACAUAAAGGGAAACCGCCAGCGCGGCGACGCACUGGUGUUGAAUUGGGAAAUCCUACUGGACCUAAGCCACAGAGUUUACUCUUUAAAUG [OLE449-608]”, in data set [1], the binding result is on record as “binds more weakly”.

Regarding “GGGGCACAUCGAUGAAGCUCCUUGUGAUGGCUUGAGGCGCCCAGCCUUGGGUCAUUGCUGGGAGAAAAGGUAGUAGGGCGAUCCACAAAGGCAUGUGGGCGAUGACCCUCCUACUGUGGAGGCCUUUUUCUCUGCUGCUUAUGUAUGGACAUAGGGCAAGAGCAAAGGGUAUGAACCUGCGAAGGCAAGCUAGGGAGCUUGUCAGCAGCGUAGCC [OLE78-290]”, the binding result in data set [1] and in data set [2] was “binds” in each case. Consider “GGAUCGAUGAAGCUCCUUGUGAUGGCUUGAGGCGCCCAGCCUUGGGUCAUUGCUGGGAGAAAAGGUAGUAGGGCGAUCCACAAAGGCAUGUGGGCGAUGACCCUCCUACUG [OLE83-191 WT]”, for which the binding result in data set [1] and in data set [2] was “binds” each time.

Values taken from paper PMC12054373.
